These results are taken from the Immune Epitope Database (IEDB).

Common to all, as to test: IEDB peptide-MHC binding, purified MHC/competitive/radioactivity; filed as Kd, often an IC50 or EC50 that approximates it; ≥ and ≤ were set here for values at or beyond the usual limits of such assays
In assay [1] the target is HLA-A*03:01.
The target in assay [2] is HLA-A*11:01.
In assay [3] the target is HLA-A*31:01.
The target of assay [4] is HLA-A*33:01.
The target of assay [5] is HLA-A*68:01.
Setting [6] is: source organism: Vaccinia virus WR.
The mark [7] stands for this setting: source organism: SARS coronavirus Tor2.
[8] abbreviates: source organism: Lassa virus GA391.
[9] abbreviates: source organism: Mammarenavirus juninense.

Turning to KALMQLTTK, the equilibrium dissociation constant (Kd) (in general, the free concentration of one partner at which half of the binding sites on the other are occupied at equilibrium, for simple one-to-one binding) in assay [1] (setting [6]) amounted to 181 nM; in assay [2] (setting [6]) it was 87.9 nM; in assay [3] (setting [6]), 135 nM; in assay [4] (setting [6]) it was 18600 nM; in assay [5] (setting [6]), 5800 nM.

For KTNCCRFQEK, the Kd in assay [1] (setting [7]) was 38.3 nM; in assay [2] (setting [7]) it was 33.3 nM; in assay [3] (setting [7]), 50.5 nM; in assay [4] (setting [7]) it was at least 37700 nM; in assay [5] (setting [7]), 4220 nM.

As to KVKYLYFIK, the equilibrium dissociation constant (Kd) in assay [1] (setting [7]) was 113 nM; in assay [2] (setting [7]), 49.1 nM; in assay [3] (setting [7]), 0.138 nM; in assay [4] (setting [7]), 9300 nM; in assay [5] (setting [7]) it was 968 nM.

Take LILNFLDWIK: the Kd is 25.1 nM in assay [1] (setting [6]); 9.27 nM in assay [2] (setting [6]); 163 nM in assay [3] (setting [6]); 7300 nM in assay [4] (setting [6]); 165 nM in assay [5] (setting [6]).

For the sequence LILSNKLLY, the equilibrium dissociation constant (Kd) in assay [1] (setting [6]) came to 13.7 nM; in assay [2] (setting [6]), 192 nM; in assay [3] (setting [6]), 5630 nM; in assay [4] (setting [6]) it was 13200 nM; in assay [5] (setting [6]), 5470 nM.

Take LIPLSEMVVK: the Kd in assay [1] (setting [6]) was 766 nM; in assay [2] (setting [6]), 55.2 nM; in assay [3] (setting [6]) it was 7380 nM; in assay [4] (setting [6]) it was at least 24900 nM; in assay [5] (setting [6]), 1490 nM.

Consider LMSIISTFH, for which the Kd in assay [1] (setting [8]) is 2230 nM; in assay [2] (setting [8]) it was 11200 nM; in assay [3] (setting [8]), 481 nM; in assay [4] (setting [8]), at least 77700 nM; in assay [5] (setting [8]), 3160 nM.

As to LSKDKMDSFK, the Kd in assay [1] (setting [6]) amounted to 25.1 nM; in assay [2] (setting [6]), 15 nM; in assay [3] (setting [6]) it was 27.8 nM; in assay [4] (setting [6]), 304 nM; in assay [5] (setting [6]) it was 1.46 nM.

For the sequence MLLQFAYSNR, the Kd in assay [1] (setting [7]) was 164 nM; in assay [2] (setting [7]) it was 860 nM; in assay [3] (setting [7]), 22.5 nM; in assay [4] (setting [7]), 114 nM; in assay [5] (setting [7]) it was 50.8 nM.

Consider MSSSVDVDIY, for which the Kd in assay [1] (setting [6]) is at least 25900 nM; in assay [2] (setting [6]), 12500 nM; in assay [3] (setting [6]), at least 70000 nM; in assay [4] (setting [6]), at least 29700 nM; in assay [5] (setting [6]), 250 nM.

As for NFIPIIYSK, the Kd turned out to be 8660 nM in assay [1] (setting [6]); 212 nM in assay [2] (setting [6]); 13.9 nM in assay [3] (setting [6]); 25.6 nM in assay [4] (setting [6]); 76.9 nM in assay [5] (setting [6]).

Take NSINNQLMY: the Kd was 4650 nM in assay [1] (setting [6]); 132 nM in assay [2] (setting [6]); at least 77900 nM in assay [3] (setting [6]); at least 77700 nM in assay [4] (setting [6]); 104 nM in assay [5] (setting [6]).

In the case of NSNIIKNKK, the Kd was determined as 10200 nM in assay [1] (setting [6]); 1240 nM in assay [2] (setting [6]); 1250 nM in assay [3] (setting [6]); 4300 nM in assay [4] (setting [6]); 241 nM in assay [5] (setting [6]).

Take NVYADSFVVK: the Kd in assay [1] (setting [7]) was 76.5 nM; in assay [2] (setting [7]), 101 nM; in assay [3] (setting [7]), 386 nM; in assay [4] (setting [7]), 972 nM; in assay [5] (setting [7]), 29.3 nM.

As to PFEKEFTSDY, the Kd in assay [1] (setting [6]) was at least 70100 nM; in assay [2] (setting [6]), at least 69800 nM; in assay [3] (setting [6]), at least 70000 nM; in assay [4] (setting [6]) it was at least 70000 nM; in assay [5] (setting [6]) it was at least 70200 nM.

For the sequence PLLCNLNKSH, the dissociation constant (Kd) is at least 70000 nM in assay [1] (setting [9]); at least 69700 nM in assay [2] (setting [9]); at least 70000 nM in assay [3] (setting [9]); at least 70000 nM in assay [4] (setting [9]); at least 45800 nM in assay [5] (setting [9]).

For PSRSKMLKR, the Kd in assay [1] (setting [6]) is 16.4 nM; in assay [2] (setting [6]) it was 5560 nM; in assay [3] (setting [6]), 1890 nM; in assay [4] (setting [6]), at least 51600 nM; in assay [5] (setting [6]), at least 77700 nM.

Regarding PSVNEYHMLK, the Kd is 10.2 nM in assay [1] (setting [6]); 13.7 nM in assay [2] (setting [6]); 408 nM in assay [3] (setting [6]); 11600 nM in assay [4] (setting [6]); 469 nM in assay [5] (setting [6]).

QAELTSNCTR: the Kd was 2530 nM in assay [1] (setting [6]); 2430 nM in assay [2] (setting [6]); 801 nM in assay [3] (setting [6]); 818 nM in assay [4] (setting [6]); 240 nM in assay [5] (setting [6]).

Take QIDRLEDLSK: the Kd in assay [1] (setting [6]) worked out at 1450 nM; in assay [2] (setting [6]), 255 nM; in assay [3] (setting [6]), 6790 nM; in assay [4] (setting [6]) it was 14700 nM; in assay [5] (setting [6]), 2310 nM.

Take QLCYCPASKK: the Kd was 170 nM in assay [1] (setting [6]); 96.2 nM in assay [2] (setting [6]); 12500 nM in assay [3] (setting [6]); at least 59500 nM in assay [4] (setting [6]); 468 nM in assay [5] (setting [6]).

Take QQQGQTVTK: the Kd in assay [1] (setting [7]) is 16600 nM; in assay [2] (setting [7]) it was 476 nM; in assay [3] (setting [7]), 3030 nM; in assay [4] (setting [7]) it was at least 30400 nM; in assay [5] (setting [7]), at least 50500 nM.

For RIGTAATKR, the Kd in assay [1] (setting [6]) is 180 nM; in assay [2] (setting [6]), 2420 nM; in assay [3] (setting [6]), 17.2 nM; in assay [4] (setting [6]), at least 77700 nM; in assay [5] (setting [6]), 325 nM.

As to RIGTAATKRY, the Kd in assay [1] (setting [6]) was 1250 nM; in assay [2] (setting [6]), at least 69800 nM; in assay [3] (setting [6]), at least 70000 nM; in assay [4] (setting [6]), at least 70000 nM; in assay [5] (setting [6]), at least 59600 nM.
